Experimental data from publication doi:10.1101/2025.02.04.636384 (bioRxiv, 2025).

Target: the molecule itself
Assay: SEC

B1: Aeropyrum pernix Kv (KvAP) channel, wild type (natural protein, UniProt Q9YDF8 1-295, looked up)
chain: MSVERWVFPGCSVMARFRRGLSDLGGRVRNIGDVMEHPLVELGVSYAALLSVIVVVVEYTMQLSGEYLVRLYLVDLILVIILWADYAYRAYKSGDPAGYVKKTLYEIPALVPAGLLALIEGHLAGLGLFRLVRLLRFLRILLIISRGSKFLSAIADAADKIRFYHLFGAVMLTVLYGAFAIYIVEYPDPNSSIKSVFDALWWAVVTATTVGYGDVVPATPIGKVIGIAVMLTGISALTLLIGTVSNMFQKILVGEPEPSCSPAKLAEMVSSMSEEEFEEFVRTLKNLRRLENSMK
- stoichiometry N: 4
